Legend:
[1] = target: ZIKV NS1 β-ladder domain (NS1 172-352) T233A mutant (Zika virus, strain Suriname); assay: AUC; sedimentation velocity, 2.95 mg/mL, 20 mM Hepes pH 7.4, 150 mM NaCl, 20 °C, 53,000 rpm, interference optics, continuous c(s) model in SEDFIT
[2] = target: ZIKV NS1 β-ladder domain (NS1 172-352), strain Suriname (Zika virus, strain Suriname); assay: as above

Substance	percent of the protein in the monomeric state [1] [%]	stoichiometry N [1]	percent of the protein in the monomeric state [2] [%]	stoichiometry N [2]
ZIKV NS1 β-ladder domain (NS1 172-352) T233A mutant (domain or fragment)	> 49	2	–	–
ZIKV NS1 β-ladder domain (NS1 172-352), strain Suriname (domain or fragment)	–	–	7.8	2
